Patent US20170122944A1
Values belong to the substance of their own block, whether it stands above or below them.

What was measured:
[1] = target: Factor D in C1q-depleted human serum (human) (UniProt P00746); experiment: cell-based or functional assay
[2] = target: recombinant human Factor D (human) (UniProt P00746); experiment: cell-based or functional assay

TR-FRET Activity (Thermal control) [2]: 103%
TR-FRET Activity (Unstressed control) [2]: 93%
Substance: Lampalizumab (Fab)
Hemolytic Mean (rabbit erythrocyte lysis assay; Thermal control) [1]: 96
Hemolytic Mean (rabbit erythrocyte lysis assay; Unstressed control) [1]: 81

TR-FRET Activity (Oxidized, 30 mM AAPH) [2]: 63%
Substance: Lampalizumab subjected to oxidation conditions (30 mM AAPH) (Fab)
Hemolytic Mean (rabbit erythrocyte lysis assay; Oxidized, 30 mM AAPH) [1]: 82

TR-FRET Activity (Thermal Stress) [2]: 86%
Substance: Lampalizumab subjected to thermal stress (Fab)
Hemolytic Mean (rabbit erythrocyte lysis assay; Thermal Stress) [1]: 102
